Data: patent US20230331852A1 (OSE IMMUNOTHERAPEUTICS, published 2023)

Key:
[1] = target: T1, human CLEC-1A expressed on the cell membrane (human, UniProt Q8NC01 1-280); experiment: flow cytometry on CHO-Clec-1 cells (from FIGURE 21)
T1 construct: Endogenous on human U266 myeloma cells, on monocyte-derived TGFb-DC and macrophages; on CHO cells after transduction with a Clec-1 expressing lentivirus; also called U266 CLEC1; CLEC-1A on U266 cells
T1 sequence: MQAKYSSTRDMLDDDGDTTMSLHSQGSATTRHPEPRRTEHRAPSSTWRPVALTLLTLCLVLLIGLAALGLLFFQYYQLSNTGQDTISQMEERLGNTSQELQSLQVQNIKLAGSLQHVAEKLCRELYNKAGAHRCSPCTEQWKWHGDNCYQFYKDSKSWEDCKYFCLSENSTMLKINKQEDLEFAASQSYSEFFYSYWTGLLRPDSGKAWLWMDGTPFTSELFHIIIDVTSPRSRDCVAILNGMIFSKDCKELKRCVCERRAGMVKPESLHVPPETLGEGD
Description: To measure binding of anti-clec on CHO-Clec-1 cells, human Fc Receptor Binding Inhibitor diluted at 1/200 (BD pharmingen; USA; reference 564220) was first added for 30 min at room-temperature to block human Fc receptors on CHO-Clec-1 cells to reduce background. Then, antibodies were incubated for 30 min at 4° C., and washed before stained 15 min at 4° C. with PE-labelled anti-human IgG Fc (Biolegend; USA; reference 409303). Samples were analyzed on citoflex (Beckman coulter)

[2] = target: T2, Fc-CLEC1 labelled with Alexa Fluor 488 (human, Alexa Fluor 488 label (sites not given)); experiment: FACS competition: blocks Fc-CLEC1-A488 (10 nM) binding to CLEC-1 ligand on UV-treated PBMC
T2 construct: also called Fc-CLEC1-A488; Alexa488-Fc-Clec-1
T2 chain: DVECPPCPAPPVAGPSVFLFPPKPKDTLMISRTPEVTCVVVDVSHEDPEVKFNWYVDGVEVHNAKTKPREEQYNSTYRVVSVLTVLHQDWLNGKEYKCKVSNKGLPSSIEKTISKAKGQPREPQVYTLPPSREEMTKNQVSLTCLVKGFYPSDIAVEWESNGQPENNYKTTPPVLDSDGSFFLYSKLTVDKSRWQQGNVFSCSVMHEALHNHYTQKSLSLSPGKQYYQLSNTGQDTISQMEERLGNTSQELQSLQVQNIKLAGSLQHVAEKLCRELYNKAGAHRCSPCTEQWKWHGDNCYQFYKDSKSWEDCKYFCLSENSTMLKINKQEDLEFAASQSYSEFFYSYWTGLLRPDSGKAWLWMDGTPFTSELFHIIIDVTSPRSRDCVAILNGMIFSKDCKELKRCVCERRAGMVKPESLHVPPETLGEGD
Description: Competition were also measured on UV pre-treated pro-apoptotic human PBMCs, which can also express the ligand after a treatment under UV radiation for 18 hours. After UV treatment, cells were first washed in cold-PSE and then blocked during 30 min at room temperature with human Fc-block 50-fold diluted in PSE, and then replaced on ice. Purified anti-Clec antibodies at different concentrations were pre-incubated with Alexa488-Fc-Clec-1 in PSE at different concentrations for 15 min at room temperature. Pre-incubated mixes were then incubated on Fc-blocked/SAB (#34005-100, Invitrogen, Illkirch, France) pro-apoptotic PBMCs for 30 min on ice. Binding on cells were then fixed by PFA 2% in cold PBS for 10 min on ice and analyzed on CytoFlex cytofluorometer (Beckman Coulter France, Villepinte).
Methods. To measure competition on permeabilised Raji (CytoFix/cytoperm kit, BD Biosciences) which expressed CLEC1 ligand, Fc-CLEC1-labelled A488 which bound specifically to permeabilised Raji was used. To measure competition, Fc-CLEC1 labelled A488 at 10 nM or 20 nM was mixed with mouse anti-hCLEC1 at different concentrations for 15 min at RT then added on these cells for 30 min at 4° C. […] To measure competition on PMBC, we used human PBMC pre-treated by UV for 18 h to obtain apoptotic PBMC, which expressed CLEC1 ligand. Fc-CLEC1-labelled A488 bound specifically apoptotic UV-treated PBMC. To measure competition, Fc-CLEC1 labelled A488 at 10 nM was mixed with mouse anti-hCLEC1 at different concentrations for 15 min at RT then added on these cells for 30 min at 4° C.

[3] = target: T3, recombinant human CLEC-1 protein with His Tag (#1704-CL R&D Systems) (human, UniProt Q8NC01 74-280); experiment: ELISA on immobilised His-CLEC1 (from FIGURE 12)
T3 construct: Bought protein; also called His-CLEC1; His Clec-1; not shown: His tag
T3 sequence: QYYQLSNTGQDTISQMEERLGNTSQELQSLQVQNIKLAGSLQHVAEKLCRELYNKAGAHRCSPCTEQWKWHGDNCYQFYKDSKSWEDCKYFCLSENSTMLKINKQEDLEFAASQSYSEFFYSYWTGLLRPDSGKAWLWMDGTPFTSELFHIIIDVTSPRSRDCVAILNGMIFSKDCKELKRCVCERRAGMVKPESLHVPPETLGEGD
Description: Method: The binding activity of the anti-hCLEC1 antibodies was assessed by ELISA (Enzyme-linked immunosorbent assay). […] A second ELISA assays was performed, like above, with immobilization of CLEC1-Fc (OSE Immunotherapeutics) at 2 μg/ml. A third ELISA assays was performed to see the cross-reactivity with mouse CLEC1. Like above, ELISA was made with immobilization of mouse Fc-CLEC1 (OSE Immunotherapeutics) at 2 μg/ml in carbonate buffer instead of His-Clec. Purified antibodies were added at different concentrations to measure binding. […] Control antibody is a commercial anti-CLEC-1A antibody.

[4] = target: T1, human CLEC-1A expressed on the cell …; experiment: flow cytometry on U266 cells, PE anti-human IgG; median fluorescence
Description: Method: To measure binding of anti-CLEC1 on human U266 cell lines (pre-blocked with Fcblock to blocking FcR), antibodies at different concentrations were incubated for 30 min at 4° C., and washed before stained 30 min at 4° C. with PE-labelled anti-human IgG (Biolegend; reference 409304). Samples were analyzed on Cytoflex cytofluorometer (Beckman Coulter). The MFI of anti-CLEC1 was compared between all anti-CLEC1 antibodies and percentage of stained cells was analysed in all conditions.

EC50 [1]: 0.895 µg/mL
IC50 [2]: 0.873 µg/mL
EC50 [3]: 0.148 µg/mL
EC50 (read off the curve) [4]: ~0.06 µg/mL
B1: chimeric anti-CLEC-1A antibody 14H9 (antibody, human IgG4 S228P, kappa, V domains shown)
VH: QVQLKESGPGLVAPSQSLSITCTISGFSLTTYGIHWVRQPPGKGLEWLVVIWSDGSTIYNSALKSRLSISKDNSKSQVFLKMNSLQTDDTAIYYCARHGGYYNYFDYWGQGTTLTVSS
VL: DIQMNQSPSSLSASLGDTITITCHASQNINVWLSWYQQKPGNIPKLLIYKASNLHTGVPSRFSGSGSGTTFTLTIDSLQPEDIATYYCQQGQSYWTFGGGTKLEIKR
notes: also called 14H9chim; 14H9-VHwt-FcG4m / 14H9-VLwt-CLhk
